{"source": "paper PMC10546976", "key": {"[1]": {"tested_on": "neuPABP (PABPC1L2)", "experiment": "EMSA", "details": "[…] (100 nM), 1 h at 30 C, pH not stated"}, "[2]": {"target": "PABPC1 (UniProt P11940 1-636)", "sequence (P11940 whole entry)": "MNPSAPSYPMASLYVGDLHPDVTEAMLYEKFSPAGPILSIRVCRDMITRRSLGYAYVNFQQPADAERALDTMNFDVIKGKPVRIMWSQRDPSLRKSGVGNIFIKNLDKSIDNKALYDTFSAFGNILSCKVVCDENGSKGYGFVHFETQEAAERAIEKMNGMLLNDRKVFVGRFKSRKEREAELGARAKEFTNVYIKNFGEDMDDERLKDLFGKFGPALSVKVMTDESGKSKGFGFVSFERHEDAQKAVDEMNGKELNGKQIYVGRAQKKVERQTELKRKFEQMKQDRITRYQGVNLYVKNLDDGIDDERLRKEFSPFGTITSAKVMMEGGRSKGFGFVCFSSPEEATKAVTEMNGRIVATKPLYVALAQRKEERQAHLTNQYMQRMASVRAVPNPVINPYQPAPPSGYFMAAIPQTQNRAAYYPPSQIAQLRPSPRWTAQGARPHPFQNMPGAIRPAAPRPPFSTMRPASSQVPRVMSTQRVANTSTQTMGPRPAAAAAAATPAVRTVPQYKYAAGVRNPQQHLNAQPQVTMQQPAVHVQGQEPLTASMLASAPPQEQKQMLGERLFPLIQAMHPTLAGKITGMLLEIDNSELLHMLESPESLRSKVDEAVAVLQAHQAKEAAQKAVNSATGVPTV", "experiment": "EMSA"}}, "data": [{"molecule": "AAAAAAAAAAAAAAAAAAAAAAAAA [oligo(A)25]", "values": [{"measurement": "Kd", "setting": "[1]", "result": 50, "unit": "nM"}]}, {"molecule": "AAAAAAAAAAAAAAAAAAAAAAAAA (ssRNA)", "note": "[oligo(A)25]", "values": [{"measurement": "Kd", "setting": "[2]", "result": "~50", "unit": "nM"}]}]}
